From the supplement of paper PMC10126150
± gives the standard deviation of the averaged measurements.

Tested on: ATP
Assay: switch fluorescence ratio, 500 uM ATP over buffer (Cy3 cluster intensity, sum of 5 cycles each) (fold (ratio)); higher = stronger signal-on switching upon ATP binding; sequences stand for … in TCGTCGGCAGCGTCAGATGTGTATAAGAGACAGTTTTTTTTTTTTTTTTTTTTTTTTT…TC
Details: aptamer strand: ATP DNA aptamer (quencher-CACCTGGGGGAGTATTGCGGAGGAAGG + anchor), 100 nM annealed; ATP concentration: 500 uM
In short: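 Five buffer/ATP imaging cycles were run on Cy3-labelled switching-strand clusters on a modified Illumina MiSeq flow-cell, with NaOH stripping and re-annealing between cycles. In each cycle, clusters annealed to 100 nM quencher-labelled ATP aptamer were imaged in selection buffer, then after 15 min with 500 uM ATP at 22 °C. Per cluster, the fluorescence ratio is summed target-cycle over summed buffer-cycle Cy3 intensity, averaged per switch-domain sequence. Only clusters within 100-1000 RFU were kept.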
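Note: ATP exposure 15 min at 22 °C before imaging.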

Q: How did the switch fluorescence ratio turn out when CTTATGAGCA was run?
A: 1.038 ± 0.0023

Q: How did the switch fluorescence ratio turn out when TATTGAGCGT was run?
A: 1 ± 0.044

Q: TTGGGGTATC was tested. Which switch fluorescence ratio did it give?
A: 1.01 ± 0.02

Q: CACGCTTCCG was tested. Which switch fluorescence ratio did it give?
A: 1.07 ± 0.047

Q: TGGTTGGATG was tested. Which switch fluorescence ratio did it give?
A: 1.003 ± 0.006

Q: How did the switch fluorescence ratio turn out when GGCTATTGCG was run?
A: 0.995 ± 0.016

Q: ACTCTGGGAG was tested. Which switch fluorescence ratio did it give?
A: 1.03 ± 0.022

Q: With AGTTGGAGCT as the sequence, how does the switch fluorescence ratio read?
A: 0.95964 ± 9.2e-05

Q: How did the switch fluorescence ratio turn out when TTAATGCAGG was run?
A: 1.006 ± 0.006

Q: TGGGTTCTTG was tested. Which switch fluorescence ratio did it give?
A: 0.998 ± 0.044

Q: With CATTTTGAGC as the sequence, how does the switch fluorescence ratio read?
A: 0.996 ± 0.014

Q: With GCATTATAT as the sequence, how does the switch fluorescence ratio read?
A: 1.03 ± 0.023

Q: How did the switch fluorescence ratio turn out when CCATACGTAG was run?
A: 1.035 ± 0.0066

Q: For CCTGTTTCAG, which switch fluorescence ratio is on record?
A: 1.05 ± 0.018

Q: AAAGTAGGAG was tested. Which switch fluorescence ratio did it give?
A: 0.98 ± 0.048

Q: Which switch fluorescence ratio does the source give for TGTGTAAAGG here?
A: 1.04 ± 0.042

Q: CGTATGCCGG was tested. Which switch fluorescence ratio did it give?
A: 0.9999 ± 0.0091

Q: How did the switch fluorescence ratio turn out when GAGCTGCGGG was run?
A: 1.002 ± 0.0021

Q: For TTTTTTGTT, which switch fluorescence ratio is on record?
A: 0.977 ± 0.034

Q: How did the switch fluorescence ratio turn out when CGTGTAATTT was run?
A: 0.993 ± 0.016

Q: How did the switch fluorescence ratio turn out when AGGTTGAAGG was run?
A: 0.997 ± 0.016

Q: With GGGAGGTCAT as the sequence, how does the switch fluorescence ratio read?
A: 0.9731 ± 0.0065

Q: For TTGGGTCTTC, which switch fluorescence ratio is on record?
A: 0.9736 ± 0.0014

Q: Which switch fluorescence ratio does the source give for AATGCATCTG here?
A: 0.973 ± 0.013

Q: GATATACTTT was tested. Which switch fluorescence ratio did it give?
A: 0.99 ± 0.027

Q: For ATTGGTAGGC, which switch fluorescence ratio is on record?
A: 1.03 ± 0.023

Q: How did the switch fluorescence ratio turn out when ACCACGCGGG was run?
A: 1.01 ± 0.066

Q: How did the switch fluorescence ratio turn out when GGATTTTTGG was run?
A: 0.989 ± 0.036

Q: Which switch fluorescence ratio does the source give for GGGGGAGACT here?
A: 1 ± 0.051

Q: With AATTTGTGGC as the sequence, how does the switch fluorescence ratio read?
A: 0.995 ± 0.034

Q: With CAATGGCCGG as the sequence, how does the switch fluorescence ratio read?
A: 1.02 ± 0.028

Q: TTAAAGTGCC was tested. Which switch fluorescence ratio did it give?
A: 1.01 ± 0.0072

Q: How did the switch fluorescence ratio turn out when TCGGTGTCGC was run?
A: 0.9621 ± 0.0031

Q: Which switch fluorescence ratio does the source give for GGCCGCCGTC here?
A: 1 ± 0.019

Q: For AGGTATTTG, which switch fluorescence ratio is on record?
A: 0.986 ± 0.013

Q: How did the switch fluorescence ratio turn out when AAGGGGACCC was run?
A: 1.04 ± 0.043

Q: For GGGACTAGAG, which switch fluorescence ratio is on record?
A: 0.9744 ± 0.0061

Q: For TTGCAGTTGT, which switch fluorescence ratio is on record?
A: 0.993 ± 0.041

Q: With AATGCGGGGT as the sequence, how does the switch fluorescence ratio read?
A: 1.13 ± 0.16

Q: How did the switch fluorescence ratio turn out when CGTGTAGGTT was run?
A: 1.02 ± 0.021

Q: CCGGGGTCGC was tested. Which switch fluorescence ratio did it give?
A: 1 ± 0.026

Q: How did the switch fluorescence ratio turn out when GGGAAAATAG was run?
A: 0.99 ± 0.012

Q: For GGGTAATTTG, which switch fluorescence ratio is on record?
A: 1 ± 0.03

Q: CCAGTTAAGA was tested. Which switch fluorescence ratio did it give?
A: 0.989 ± 0.024

Q: For CGAACTGCAG, which switch fluorescence ratio is on record?
A: 1.034 ± 0.0016

Q: Which switch fluorescence ratio does the source give for TGGTTTAGAG here?
A: 0.979 ± 0.024

Q: Which switch fluorescence ratio does the source give for CGGTGACTGA here?
A: 0.9569 ± 0.008

Q: With TCATGGCGGT as the sequence, how does the switch fluorescence ratio read?
A: 1.01 ± 0.014

Q: How did the switch fluorescence ratio turn out when GCCTTGAAGT was run?
A: 1 ± 0.013

Q: For CTTTTTTTGT, which switch fluorescence ratio is on record?
A: 0.995 ± 0.025

Q: For GACAGGGGCC, which switch fluorescence ratio is on record?
A: 0.987 ± 0.018

Q: How did the switch fluorescence ratio turn out when GGGGTAAAAT was run?
A: 1.01 ± 0.035

Q: With CATTTAGCTC as the sequence, how does the switch fluorescence ratio read?
A: 1.07 ± 0.015

Q: How did the switch fluorescence ratio turn out when TCAAACTGGT was run?
A: 1.03 ± 0.028

Q: For GGGTTTTCTG, which switch fluorescence ratio is on record?
A: 0.945 ± 0.017

Q: ATCAAACGGG was tested. Which switch fluorescence ratio did it give?
A: 1.02 ± 0.029

Q: With GGGGAGTTCG as the sequence, how does the switch fluorescence ratio read?
A: 0.983 ± 0.019

Q: Which switch fluorescence ratio does the source give for GCTGTTCCTC here?
A: 1.07 ± 0.011

Q: TGCCGGGAAA was tested. Which switch fluorescence ratio did it give?
A: 1.01 ± 0.0084

Q: With GGGTATCTGT as the sequence, how does the switch fluorescence ratio read?
A: 1.01 ± 0.032

Q: Which switch fluorescence ratio does the source give for TTTTCAAATT here?
A: 1.01 ± 0.028

Q: For GTGGGCTGTT, which switch fluorescence ratio is on record?
A: 1.01 ± 0.06

Q: For TTAGGGTAGG, which switch fluorescence ratio is on record?
A: 0.97 ± 0.039

Q: TTTGCAGGGG was tested. Which switch fluorescence ratio did it give?
A: 1.06 ± 0.1

Q: With TTATTTGCGC as the sequence, how does the switch fluorescence ratio read?
A: 1.024 ± 0.0036

Q: For GGCTATAATA, which switch fluorescence ratio is on record?
A: 1.01 ± 0.034

Q: AGGCAACCAC was tested. Which switch fluorescence ratio did it give?
A: 1.23 ± 0.033

Q: How did the switch fluorescence ratio turn out when GGGACGTTAG was run?
A: 1.09 ± 0.034

Q: Which switch fluorescence ratio does the source give for GATTAAATAG here?
A: 0.9988 ± 0.0032

Q: For GGTGTCGTCA, which switch fluorescence ratio is on record?
A: 1.024 ± 0.0081

Q: GCAAGGGTGG was tested. Which switch fluorescence ratio did it give?
A: 1 ± 0.038

Q: Which switch fluorescence ratio does the source give for TGGGGGACCC here?
A: 1 ± 0.061

Q: For GCCTTTCAAT, which switch fluorescence ratio is on record?
A: 1.024 ± 0.0015

Q: For ATGACCTCGG, which switch fluorescence ratio is on record?
A: 1.02 ± 0.07

Q: Which switch fluorescence ratio does the source give for TATGTTAGAT here?
A: 1.002 ± 0.01

Q: GTTCAGTTGC was tested. Which switch fluorescence ratio did it give?
A: 0.996 ± 0.033

Q: Which switch fluorescence ratio does the source give for CGGTGGGGCA here?
A: 1.1 ± 0.13

Q: Which switch fluorescence ratio does the source give for TTTCGTTATT here?
A: 1.34 ± 0.73

Q: For AAAGAAGGTA, which switch fluorescence ratio is on record?
A: 1 ± 0.026

Q: For TGGGGTAGTT, which switch fluorescence ratio is on record?
A: 0.995 ± 0.01

Q: Which switch fluorescence ratio does the source give for TTGAGGTTTG here?
A: 1.03 ± 0.019

Q: With TTTTAGGTAC as the sequence, how does the switch fluorescence ratio read?
A: 1.021 ± 0.0019

Q: How did the switch fluorescence ratio turn out when TGCAGCTGTA was run?
A: 1.04 ± 0.014

Q: CGAGGAATTT was tested. Which switch fluorescence ratio did it give?
A: 1.04 ± 0.043

Q: With TCCAGACGGC as the sequence, how does the switch fluorescence ratio read?
A: 1 ± 0.013

Q: For TGAGCACGGG, which switch fluorescence ratio is on record?
A: 1.03 ± 0.02

Q: With TCCGTTGGCT as the sequence, how does the switch fluorescence ratio read?
A: 1.07 ± 0.062

Q: How did the switch fluorescence ratio turn out when AAAGATGTCA was run?
A: 1.005 ± 0.0029

Q: Which switch fluorescence ratio does the source give for TTTCACTTGG here?
A: 1.03 ± 0.027

Q: With TGTTTACAGC as the sequence, how does the switch fluorescence ratio read?
A: 0.997 ± 0.027

Q: With CATTTTGGGC as the sequence, how does the switch fluorescence ratio read?
A: 0.992 ± 0.041

Q: Which switch fluorescence ratio does the source give for AAATCTGAAG here?
A: 0.9798 ± 0.0027

Q: TCTGGGTTGG was tested. Which switch fluorescence ratio did it give?
A: 1.013 ± 0.0074

Q: How did the switch fluorescence ratio turn out when GCCGATTACG was run?
A: 1.02 ± 0.033

Q: GTGGATTTGA was tested. Which switch fluorescence ratio did it give?
A: 1.01 ± 0.013

Q: Which switch fluorescence ratio does the source give for TTTCCAGTAA here?
A: 1.036 ± 0.0068

Q: AGATGCATGG was tested. Which switch fluorescence ratio did it give?
A: 1.02 ± 0.025

Q: How did the switch fluorescence ratio turn out when GGAGATAGTT was run?
A: 0.9806 ± 0.0057

Q: How did the switch fluorescence ratio turn out when GTTCCTCATT was run?
A: 1.45 ± 0.61

Q: For ATAGCAGTTA, which switch fluorescence ratio is on record?
A: 1.02 ± 0.01
